Results: publication PMC11417369, “DNA sequence and chromatin differentiate sequence-specific transcription factor binding in the human malaria parasite Plasmodium falciparum”

Key:
HDP1 homeodomain-like = target: T1, HDP1 homeodomain-like (Plasmodium falciparum, UniProt Q8IKH4 2990-3078); experiment: gcPBM; about 25 ug protein; PBS, 1% milk, 0.2 mg/ml BSA, salmon testes DNA, 0.03% Triton X-100; details: tags: N-terminal GST (pGEX-4T-1), kept; chain copies: 2; label: surface-attached array probe
T1 sequence: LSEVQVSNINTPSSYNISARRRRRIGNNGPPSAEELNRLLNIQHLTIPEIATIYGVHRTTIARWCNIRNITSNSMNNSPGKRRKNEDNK

SIP2 D1 = target: T2, SIP2 D1 (Plasmodium falciparum, UniProt C6KSN9 177-235); experiment: as above; details: tags: N-terminal GST (pGEX-4T-1), kept; label: surface-attached array probe
T2 sequence: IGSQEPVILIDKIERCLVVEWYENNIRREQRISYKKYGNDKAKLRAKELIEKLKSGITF

Binder | binding signal (HDP1 homeodomain-like) | binding signal (SIP2 D1)
GTGCAC_negctrl_site230 (dsDNA) DNA 1: TGTTGTTATAAAAAAAAAAAAAAAAAAAAAAAAAAA DNA 2: TTTTTTTTTTTTTTTTTTTTTTTTTTTATAACAACA | 6.26 ln median PBM intensity, better of two orientations | 
GTGCAC_site10622 (dsDNA) DNA 1: TATTATTCAAAATTTGTGCACAAAATTAAAGGAACA DNA 2: TGTTCCTTTAATTTTGTGCACAAATTTTGAATAATA | 11.1 ln median PBM intensity, better of two orientations | 8.92 ln median PBM intensity, better of two orientations
GTGCAC_negctrl_site73 (dsDNA) DNA 1: AGCACACAAAAAAAAAAAAAAAAAAAAAAAGGAATG DNA 2: CATTCCTTTTTTTTTTTTTTTTTTTTTTTGTGTGCT | 6.21 ln median PBM intensity, better of two orientations | 
GTGCAC_site9776 (dsDNA) DNA 1: TTTATATATTTTGTCGTGCACATTTGGAAAATTACA DNA 2: TGTAATTTTCCAAATGTGCACGACAAAATATATAAA | 8.92 ln median PBM intensity, better of two orientations | 9.81 ln median PBM intensity, better of two orientations
GTGCAC_negctrl_site362 (dsDNA) DNA 1: TATTATATCTTATATGTATATTCCCACAAATTATAT DNA 2: ATATAATTTGTGGGAATATACATATAAGATATAATA | 6.31 ln median PBM intensity, better of two orientations | 
GTGCAC_negctrl_site564 (dsDNA) DNA 1: ATAATGAACAATATTATATATAAAATATAATTTATA DNA 2: TATAAATTATATTTTATATATAATATTGTTCATTAT | 6.17 ln median PBM intensity, better of two orientations | 
GTGCAC_negctrl_site465 (dsDNA) DNA 1: AAAAAATGTAAATATAAACAACCAAAGGGGGTATAC DNA 2: GTATACCCCCTTTGGTTGTTTATATTTACATTTTTT | 6.37 ln median PBM intensity, better of two orientations | 
GTGCAC_site9953 (dsDNA) DNA 1: ATATATCTTTATATAGTGCATTAAATATGTTGTAAT DNA 2: ATTACAACATATTTAATGCACTATATAAAGATATAT | 8.99 ln median PBM intensity, better of two orientations | 8.47 ln median PBM intensity, better of two orientations
GTGCAC_negctrl_site190 (dsDNA) DNA 1: TAGTTACTTCTTATATAAAATATGTATATAAAAATA DNA 2: TATTTTTATATACATATTTTATATAAGAAGTAACTA | 6.17 ln median PBM intensity, better of two orientations | 
GTGCAC_negctrl_site551 (dsDNA) DNA 1: AAAAGGAATATAATCATTCAAAAATATAATATATAT DNA 2: ATATATATTATATTTTTGAATGATTATATTCCTTTT | 6.36 ln median PBM intensity, better of two orientations | 
GTGCAC_site10773 (dsDNA) DNA 1: TATATATATATAATTGTGCACATAATTTTAAACCAA DNA 2: TTGGTTTAAAATTATGTGCACAATTATATATATATA | 11.1 ln median PBM intensity, better of two orientations | 9.89 ln median PBM intensity, better of two orientations
GTGCAC_negctrl_site448 (dsDNA) DNA 1: TCTTTTTAAATTACTATAATACATTCATAAATTATA DNA 2: TATAATTTATGAATGTATTATAGTAATTTAAAAAGA | 6.3 ln median PBM intensity, better of two orientations | 
GTGCAC_site9510 (dsDNA) DNA 1: TGTTTATTTATTTGTGTGCACTCAGATTATATTATA DNA 2: TATAATATAATCTGAGTGCACACAAATAAATAAACA | 11.3 ln median PBM intensity, better of two orientations | 10.1 ln median PBM intensity, better of two orientations
GTGCAC_negctrl_site681 (dsDNA) DNA 1: AAAGGTAAATGTAAATAAATAAATAATAAATATATA DNA 2: TATATATTTATTATTTATTTATTTACATTTACCTTT | 6.27 ln median PBM intensity, better of two orientations | 
GTGCAC_negctrl_site542 (dsDNA) DNA 1: AAAATCCAGTTTTCAAAATTGAACAAAAAAAAAATA DNA 2: TATTTTTTTTTTGTTCAATTTTGAAAACTGGATTTT | 6.19 ln median PBM intensity, better of two orientations | 
GTGCAC_negctrl_site236 (dsDNA) DNA 1: TGTTAAAAGGTTAAATTAAAATAACCTCCGGAAATT DNA 2: AATTTCCGGAGGTTATTTTAATTTAACCTTTTAACA | 6.21 ln median PBM intensity, better of two orientations | 
GTGCAC_site10117 (dsDNA) DNA 1: AATAACTATATATGTGTGCACAAAAATTTGACATAA DNA 2: TTATGTCAAATTTTTGTGCACACATATATAGTTATT | 11.2 ln median PBM intensity, better of two orientations | 9.72 ln median PBM intensity, better of two orientations
GTGCAC_negctrl_site640 (dsDNA) DNA 1: AGAAATATGTTGAAGCATTTATAATGTAGATATAAG DNA 2: CTTATATCTACATTATAAATGCTTCAACATATTTCT | 6.35 ln median PBM intensity, better of two orientations | 
GTGCAC_site10686 (dsDNA) DNA 1: TATCCATTTCTTTATGTGCACATTAAATATATTTGT DNA 2: ACAAATATATTTAATGTGCACATAAAGAAATGGATA | 11.4 ln median PBM intensity, better of two orientations | 8.89 ln median PBM intensity, better of two orientations
GTGCAC_negctrl_site541 (dsDNA) DNA 1: TCCCCCTTTTTTTGATTTTTATCTTAATTCTAAAAG DNA 2: CTTTTAGAATTAAGATAAAAATCAAAAAAAGGGGGA | 6.28 ln median PBM intensity, better of two orientations | 
GTGCAC_negctrl_site20 (dsDNA) DNA 1: TAGTTCCTCAAAAATTTCCTTTGTCATTTTATTCAC DNA 2: GTGAATAAAATGACAAAGGAAATTTTTGAGGAACTA | 6.25 ln median PBM intensity, better of two orientations | 

Binder | binding signal (HDP1 homeodomain-like) | binding signal (SIP2 D1)
GTGCAC_negctrl_site507 (dsDNA) DNA 1: ATGTTGTTCATAAATATATTATTTTTAAATGTACAA DNA 2: TTGTACATTTAAAAATAATATATTTATGAACAACAT | 6.37 ln median PBM intensity, better of two orientations | 
GTGCAC_negctrl_site710 (dsDNA) DNA 1: AATATATTTTAGAGTTTTATATATTTTATGCATATA DNA 2: TATATGCATAAAATATATAAAACTCTAAAATATATT | 6.25 ln median PBM intensity, better of two orientations | 
GTGCAC_negctrl_site532 (dsDNA) DNA 1: AATAATTTTTAAATATAAACATTTTTTTTTTTTTTT DNA 2: AAAAAAAAAAAAAAATGTTTATATTTAAAAATTATT | 6.29 ln median PBM intensity, better of two orientations | 
GTGCAC_negctrl_site596 (dsDNA) DNA 1: TTTTTTATTTTATTTTATTTTTATTTTTTTTTTTTT DNA 2: AAAAAAAAAAAAATAAAAATAAAATAAAATAAAAAA | 6.26 ln median PBM intensity, better of two orientations | 
GTGCAC_negctrl_site10 (dsDNA) DNA 1: TGCCATATATATATTAAATACATAATAATGAGCCTA DNA 2: TAGGCTCATTATTATGTATTTAATATATATATGGCA | 6.22 ln median PBM intensity, better of two orientations | 
GTGCAC_negctrl_site151 (dsDNA) DNA 1: TTTGTTCTATGGAGTTTAAAATGTAATATATATTAA DNA 2: TTAATATATATTACATTTTAAACTCCATAGAACAAA | 6.25 ln median PBM intensity, better of two orientations | 
GTGCAC_negctrl_site352 (dsDNA) DNA 1: TTTTTTTTTTTTTTTTTTTTCACATGTGTGGAAAAA DNA 2: TTTTTCCACACATGTGAAAAAAAAAAAAAAAAAAAA | 6.23 ln median PBM intensity, better of two orientations | 
GTGCAC_negctrl_site486 (dsDNA) DNA 1: TATTTATTATGATACTCATATTATTCTATGATTAAA DNA 2: TTTAATCATAGAATAATATGAGTATCATAATAAATA | 6.33 ln median PBM intensity, better of two orientations | 
GTGCAC_site10365 (dsDNA) DNA 1: TTTCAATTTATCAGTGTGCACAAAAATAAAATAAAA DNA 2: TTTTATTTTATTTTTGTGCACACTGATAAATTGAAA | 11.4 ln median PBM intensity, better of two orientations | 10.1 ln median PBM intensity, better of two orientations
GTGCAC_negctrl_site550 (dsDNA) DNA 1: AAAAAAAATAAAGAGAAAAAAAAAAGAAAATTATAT DNA 2: ATATAATTTTCTTTTTTTTTTCTCTTTATTTTTTTT | 6.22 ln median PBM intensity, better of two orientations | 
GTGCAC_negctrl_site213 (dsDNA) DNA 1: TTTAATCAATGATTTAATGAAAAAAGCAAAAAAAAA DNA 2: TTTTTTTTTGCTTTTTTCATTAAATCATTGATTAAA | 6.34 ln median PBM intensity, better of two orientations | 
GTGCAC_negctrl_site655 (dsDNA) DNA 1: TCTTTTAACAAATAATAAGCTAATTTATATTATTAT DNA 2: ATAATAATATAAATTAGCTTATTATTTGTTAAAAGA | 6.28 ln median PBM intensity, better of two orientations | 
GTGCAC_negctrl_site354 (dsDNA) DNA 1: ATAAATTGAAGTAAATTTGACCTTTTTTTTTTTTTT DNA 2: AAAAAAAAAAAAAAGGTCAAATTTACTTCAATTTAT | 6.29 ln median PBM intensity, better of two orientations | 
GTGCAC_negctrl_site358 (dsDNA) DNA 1: TACTGTATTATAATTATGATTGACGAAATTAAAAAT DNA 2: ATTTTTAATTTCGTCAATCATAATTATAATACAGTA | 6.33 ln median PBM intensity, better of two orientations | 
GTGCAC_negctrl_site549 (dsDNA) DNA 1: TTTTTTATAGTACATTACCAAAAAAAAAAAAAAAAA DNA 2: TTTTTTTTTTTTTTTTTGGTAATGTACTATAAAAAA | 6.26 ln median PBM intensity, better of two orientations | 
GTGCAC_negctrl_site77 (dsDNA) DNA 1: TATTAAAATATGTCAGTTCTTAAAAAGTTGATGAGT DNA 2: ACTCATCAACTTTTTAAGAACTGACATATTTTAATA | 6.19 ln median PBM intensity, better of two orientations | 
GTGCAC_negctrl_site17 (dsDNA) DNA 1: TTTTTTTTTTTTTTTTTTTTCTTCATTTAATTTATA DNA 2: TATAAATTAAATGAAGAAAAAAAAAAAAAAAAAAAA | 6.26 ln median PBM intensity, better of two orientations | 
GTGCAC_negctrl_site275 (dsDNA) DNA 1: ATATTTTATCATGTTTAATATTTATGTGGACATAAA DNA 2: TTTATGTCCACATAAATATTAAACATGATAAAATAT | 6.34 ln median PBM intensity, better of two orientations | 
GTGCAC_negctrl_site183 (dsDNA) DNA 1: TGTATAGGTACAATAATTATAGAGTAATTGACATTA DNA 2: TAATGTCAATTACTCTATAATTATTGTACCTATACA | 6.21 ln median PBM intensity, better of two orientations | 
GTGCAC_negctrl_site622 (dsDNA) DNA 1: TTTTGAATATATTAAATAAATTAAAAATCTACAAAC DNA 2: GTTTGTAGATTTTTAATTTATTTAATATATTCAAAA | 6.24 ln median PBM intensity, better of two orientations | 
